In the supplement of paper PMC12764529:
± gives the half width of the 95% confidence interval.

Tests used:
[1] = folding stability dG unfold from chymotrypsin proteolysis; higher = more stable
Procedure: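 Folding stability of de novo designed mini-proteins (<80 aa, no Cys; designed by TrROS, TrMRF, ProteinMPNN and the joint model) was measured by cDNA display proteolysis with trypsin and chymotrypsin. Each protease was used at 11 concentrations in a threefold dilution series plus a no-protease condition. K50 was inferred by Bayesian fitting of sequencing counts, and dG unfold was derived against a sequence-predicted unfolded-state K50 (Tsuboyama et al. method). Sequences shown include variable-length N-terminal GS-type padding (SAGGSAGG...) inside a display construct carrying a PA tag. Rows were kept only if the AF2 dimer inter-PAE was >15, to exclude likely homo-oligomers.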

[2] = folding stability dG unfold (combined trypsin and chymotrypsin); higher = more stable
Summary of the method: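 Designed mini-proteins with no cysteine and under 80 residues were kept only if AlphaFold2 dimer inter-PAE was above 15. In a PA-tagged cDNA display construct, they were digested with trypsin and chymotrypsin and then sequenced. K50 was inferred by Bayesian fitting of counts, and unfolding free energy was derived per protease or combined against a sequence-predicted unfolded-state K50 and a shared folded-state K50.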

Sequence | folding stability dG unfold [1] [kcal/mol] | folding stability dG unfold [2] [kcal/mol]
SAGGSAGGSAGDPNYVQVTIRMPMERRNPEDGKWERNPMEITIPFKSKDQADKIAEEIGISAGGSAGGSAGG [r11_984_TrROS] | -0.0109 ± 0.18 | -0.375 ± 0.23
SAGGSAGGSAGEAAIEAAIAANSPDKDATVALPGGETVRLKFTRDPKVPTLLSLDVEREPPRSAGGSAGGSA [r18_202_JUSTAS] | -0.61 ± 0.29 | < -1
SAGGSAGGSAGEIVIDVEPNMTVEEVKKRIKALAEELKKEKGLEIKKIEIKEGMSVEELLSAGGSAGGSAGG [r17_43_TrROS_Hall] | 0.225 ± 0.077 | -0.00172 ± 0.13
SAGGSAGGSAGEVLIVAPAALLKEAIGPGVEVLAVDDDVVVVRVPVPPVPLTDANGNPLPSAGGSAGGSAGG [r11_828_TrMRF] | 0.598 ± 0.047 | -0.15 ± 0.3
SAGGSAGGSAGGAKPVTFTFPDGTKAVSVEETPTSVVLYDPGPGALYVLDKETKTITPASAGGSAGGSAGGS [r10_289_TrMRF] | -0.512 ± 0.29 | -0.72 ± 0.34
SAGGSAGGSAGGDPIRVDDIEPNPDRLEIDIRNFGNGNQKKHTIPPGSPPKIKPGDYIRSAGGSAGGSAGGS [r10_834_TrROS] | 0.857 ± 0.12 | 0.229 ± 0.26
SAGGSAGGSAGGEARDNGVPTIEIPIPPEFKKGMPAEQMVDQLAKQLPPGVKDIHIEPPPSAGGSAGGSAGG [r7_487_TrROS] | 0.744 ± 0.035 | 0.376 ± 0.13
SAGGSAGGSAGGEVITVKRPDGTPFDVTAVLSEDPVVPLLTVEATDDGPVVTLDVPASLLSAGGSAGGSAGG [r7_236_JUSTAS] | 0.207 ± 0.16 | -0.172 ± 0.26
SAGGSAGGSAGGEVPADAVIEERLEVTDVSTGEKRRFRRTVTVEVDPDGSLRVRTEVEEESAGGSAGGSAGG [r7_19_JUSTAS] | -0.184 ± 0.63 | -0.215 ± 0.3
SAGGSAGGSAGGGATVTETRTEFVPPTGIVRVESVVTYPDGSTRRTSSVVVVERPGAQPSAGGSAGGSAGGS [r10_290_JUSTAS] | 0.872 ± 0.03 | 0.386 ± 0.13
SAGGSAGGSAGGGMKTKTTISTHPGPGGKTRVLVEVDPKKGLLTWRDPSDPSATTVVPLGSAGGSAGGSAGG [r7_992_JUSTAS] | 0.511 ± 0.23 | -0.446 ± 0.41
SAGGSAGGSAGGGMPVPPVEVVEVSEEVRPLPPSSDKTVRRVTRTLPDGSTLTFEEPPESAGGSAGGSAGGS [r10_945_JUSTAS] | 0.459 ± 0.04 | 0.064 ± 0.062
SAGGSAGGSAGGGPMIYTEETVEEVVKVGEKSIKRTVTTTKVEVPGKPGVVLETKVDWGGSAGGSAGGSAGG [r7_795_JUSTAS] | 0.837 ± 0.024 | 0.312 ± 0.092
SAGGSAGGSAGGGSMDELPEIEEIAYVTDPATGAVTTVPASQVPEVLASTNNTVTIRPVSAGGSAGGSAGGS [r10_1121_JUSTAS] | 0.363 ± 0.073 | < -1
SAGGSAGGSAGGKIEIDNIERFRPPNGNRYYKMTIRVEGNGKEREIWAPADDADNFKIESAGGSAGGSAGGS [r10_326_TrROS] | -0.0266 ± 0.22 | -0.474 ± 0.25
SAGGSAGGSAGGKKININVPAEEMTEEEIKKLIKNLPPDMPIEIEIQPVPPPPPPPPGDKSAGGSAGGSAGG [r7_979_TrROS] | -0.851 ± 0.63 | < -1
SAGGSAGGSAGGMIIVPVVTEETVDVTFRKTPEGVWEPVGPQTITTTTTLTIDPTKGRLSAGGSAGGSAGGS [r10_93_JUSTAS] | 0.135 ± 0.43 | -0.443 ± 0.37
SAGGSAGGSAGGMKPGEVVLIYVERSYYDPEKGPLTPRNARYELLNYKPLPLKPKDPKVLSAGGSAGGSAGG [r7_522_JUSTAS] | -0.3 ± 0.26 | -0.516 ± 0.16

Sequence | folding stability dG unfold [1] [kcal/mol] | folding stability dG unfold [2] [kcal/mol]
SAGGSAGGSAGGMKPQPIKVTVERHFPDGTVELEELVFPSPEEVEKFLKENPDWTVVEVESAGGSAGGSAGG [r11_802_JUSTAS] | 2.6 ± 0.081 | 3.4 ± 0.22
SAGGSAGGSAGGMPPVEIVEIVNSPGKNPVIVLDPATGEPRLIEVPPDVTLTPEMARRESAGGSAGGSAGGS [r10_844_JUSTAS] | 0.838 ± 0.066 | 0.0501 ± 0.2
SAGGSAGGSAGGMSTVVEESFYPEERVLRRTTTTVEEEGVTTEPSVYTVEPGDPNVLTPASAGGSAGGSAGG [r7_866_JUSTAS] | 0.0822 ± 0.22 | -0.434 ± 0.25
SAGGSAGGSAGGMVRTLDLPNLSEEEIEEIIKKNPNEVYEITFRPPNGPEVTKTIPTHHSAGGSAGGSAGGS [r10_408_JUSTAS] | 0.84 ± 0.081 | 0.524 ± 0.18
SAGGSAGGSAGGMYIPGDLVEWVSPVGDKWRVGLIGKPQTFDWKDIPAPSNENIVFVPGSAGGSAGGSAGGS [r10_665_TrMRF] | -0.392 ± 0.29 | < -1
SAGGSAGGSAGGNPVYRTRAEILETVPVGEDETVWLPGTAAPVSPSTTVLLARVYSVPADSAGGSAGGSAGG [r11_793_TrMRF] | -0.355 ± 0.27 | < -1
SAGGSAGGSAGGPFFMPEQKGTIPADELQKKGGNLTSVEIKVRPWMMELEIEIVYPPGDKSAGGSAGGSAGG [r7_116_TrROS] | 1.14 ± 0.36 | 0.0937 ± 0.51
SAGGSAGGSAGGPIEEILASLPPNATVKVSRVVKLTTPDGSLSSIEVEEVITVKKPEKALSAGGSAGGSAGG [r11_347_JUSTAS] | 0.655 ± 0.02 | 0.287 ± 0.13
SAGGSAGGSAGGPIVLKFKTKEEAEEFAKKLKKEIPNIKEVKIEEDPETGEYYLVVVNDSAGGSAGGSAGGS [r10_544_TrMRF] | 4.86 ± 0.17 | 5 ± 0.28
SAGGSAGGSAGGPMYTVHTETFTTLEPGAGKRIVTTRTTNPATGATATTTTVIPLEPEALSAGGSAGGSAGG [r17_153_JUSTAS] | -0.555 ± 0.39 | < -1
SAGGSAGGSAGGPPVLTVTRYPPTPYLTVTLPGGRPVVLPVHPDTPPSDVLRLARELTASAGGSAGGSAGGS [r10_33_TrMRF] | -0.163 ± 0.26 | < -1
SAGGSAGGSAGGPVFDMSNFEEVKEAAEKAGIDVVEEDPEKNTIYVDPSKPELIKEAIQKSAGGSAGGSAGG [r7_285_JUSTAS] | 0.874 ± 0.14 | 0.205 ± 0.4
SAGGSAGGSAGGRPIPLDEFRDMPPNWKIEFNNGKEVEIPADDIKKPIDKGDTVRIEPVPSAGGSAGGSAGG [r7_643_TrROS] | 0.705 ± 0.024 | 0.188 ± 0.098
SAGGSAGGSAGGSATVTTTTTSGATITPPALTELPSGYVAVVTPTGDTLNVVIAPKALLSAGGSAGGSAGGS [r4_279_JUSTAS] | 0.214 ± 0.26 | -0.966 ± 0.49
SAGGSAGGSAGGSDDGSGVRLETFTVTGKGATVTLPDGSTLTVPADQTVTVTRLEVLPKSAGGSAGGSAGGS [r4_26_TrMRF] | -0.509 ± 0.23 | < -1
SAGGSAGGSAGGSGFILKESPDSVLSYDAITGETKKVPSKDVVLEYDPNNGVYTLTVSKSAGGSAGGSAGGS [r4_127_JUSTAS] | 0.639 ± 0.12 | 0.168 ± 0.17
SAGGSAGGSAGGSGMEEIEEKMKKGYTFTVTSSSPNKTYTIKPEEVSKFKDESISVKAESAGGSAGGSAGGS [r4_157_JUSTAS] | -1.4 ± 0.84 | < -1
SAGGSAGGSAGGSGPDETILVTRKVTTTEPVLLEHDGTPRVRERTVTRTSSTTERVDLSSAGGSAGGSAGGS [r4_271_JUSTAS] | -0.146 ± 0.21 | -0.835 ± 0.32
